Assay results as given in paper PMC5715787, “Structural basis for antibody recognition of the NANP repeats in Plasmodium falciparum circumsporozoite protein” (Proceedings of the National Academy of Sciences of the …, 2017).

T1: Ac-DPNANPNVDPNA-NH2 peptide (Plasmodium falciparum CSP repeat …)
T1 chain: Ac-DPNANPNVDPNA-NH2

T2: Ac-NPNVDPNANPNV-NH2 peptide (Plasmodium falciparum CSP repeat …)
T2 chain: Ac-NPNVDPNANPNV-NH2

B1: Fab317 (Fab, V domains shown)
VH: QMQLVESGGGVVQPGRSLRLSCTASGFTFSTYAMHWVRQSPGQGLQWVAVISYHSTNKYYEDSVRGRFTISRDNSKNTLYLQMNSLRAEDTAVYYCARDGYSSSFFDFWGQGTLVTVSS
VL: DIQMTQSPSTLSASVGDRVAITCRASQSISRWLAWYQQQPGKAPKLLMSGASVLESGVPSRFSGSGSGTEFTLTISSLQPDDFATYYCQHYNSYFVTFGQGTKVEIK
B2: Fab311 (Fab, V domains shown)
VH: QVQLVESGGGVVPPGRSLRLSCATSGFTFSNYGMHWVRQAPGKGLEWVAIIWYDGSRNFYAASVEGRFTISRDNSKNTLYLQMNSLRVEDTAVYYCARAAYYDTSGYGDYWGQGTLVTVSS
VL: QSVLTQPPSVSGAPGQTVTISCTGGSSNIGAGYDVHWYQQLPGTAPKLLIYGNINRPSGVPDRFSGSKSGTSASLAITGLQAEDEADYYCQSYDRRLSGSWVFGGGTKLTVL

Assays:
Test in all cases: ITC; MicroCal Auto-iTC200; triplicate (or duplicate) experiments; details in SI
Settings in all cases: both partners purified
[1] = molecular target: T3, (NPNA)3 peptide, Ac-[residues removed]-NH2 (Plasmodium falciparum CSP repeat …)
T3 construct: also called 12-mer

(NPNA)2 peptide = (NPNA)2 peptide (Plasmodium falciparum CSP repeat …)
[2] = molecular target: T1, Ac-DPNANPNVDPNA-NH2 peptide
[3] = molecular target: T2, Ac-NPNVDPNANPNV-NH2 peptide

Binder	Kd [1] [nM]	dH [1] [kcal/mol]	stoichiometry N [1]	Kd ((NPNA)2 peptide) [nM]	dH ((NPNA)2 peptide) [kcal/mol]	stoichiometry N ((NPNA)2 peptide)	Kd [2] [nM]	dH [2] [kcal/mol]	stoichiometry N [2]	Kd [3] [nM]	dH [3] [kcal/mol]	stoichiometry N [3]
B1	78	-15.7	1.27	173	-12.1	1.41	448	-9.39	1.64	–	–	–
B2	305	-29.8	0.74	296	-16.4	1.5	1370	-20.2	1.2	1790	-18.7	1.24
